# Square brackets hold non-standard residues; d marks the D form. GABA = NCCCC(=O)O
# B1: BC2-Nb(R106E) (VHH)
# VHH: QVQLVESGGGLVQPGGSLTLSCTASGFTLDHYDIGWFRQAPGKEREGVSCINNSDDDTYYADSVKGRFTIFMDNAKDTVYLQMNSLKPEDTAIYYCAEARGCKRGEYEYDFWGQGTQVTVSS
# notes: Headlock mutant; immobilized on beads in the library pulldown
# Legend:
# Experiment in all cases: peptide library pulldown on immobilized Nb, LC-MS of supernatant; ratio vs GFP-Nb control (1 = not captured, 0 = captured)
# [1] = biological target: T1, BC2T Q11(I/L) library peptide, version 2 (N-terminal acetyl, C-terminal amide)
# T1 construct: Ile and Leu versions are isobaric; two versions resolved but not assigned; also called I/L2
# How it was run: (§1)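 Unbound peptide left in supernatant after 1 h pulldown in PBS/0.01% CHAPS measured by reversed-phase LC-MS (8–30% eluent B gradient, 20 min).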
# [2] = biological target: T2, BC2T Q11R library peptide (human)
# T2 peptide: Ac-PDRKAAVSHWRQ-NH2
# How it was run: as §1
# BC2T H9P library peptide = biological target: T3, BC2T H9P library peptide (human)
# T3 peptide: Ac-PDRKAAVSPWQQ-NH2
# How it was run: as §1
# [3] = biological target: T4, BC2T Q12R library peptide (human)
# T4 peptide: Ac-PDRKAAVSHWQR-NH2
# How it was run: as §1
# [4] = biological target: T5, BC2T Q12(I/L) library peptide, version 1 (N-terminal acetyl, C-terminal amide)
# T5 construct: Ile and Leu versions are isobaric; two versions resolved but not assigned; also called I/L1
# How it was run: as §1
# BC2T H9E library peptide = biological target: T6, BC2T H9E library peptide (human)
# T6 peptide: Ac-PDRKAAVSEWQQ-NH2
# How it was run: as §1
# [5] = biological target: T7, BC2T S8(I/L) library peptide, version 1 (N-terminal acetyl, C-terminal amide)
# T7 construct: Ile and Leu versions are isobaric; two versions resolved but not assigned; also called BC2TS8X: I/L1
# How it was run: as §1
# BC2T S8Y library peptide = biological target: T8, BC2T S8Y library peptide (human)
# T8 construct: also called BC2TS8X: Y
# T8 peptide: Ac-PDRKAAVYHWQQ-NH2
# How it was run: as §1
# [6] = biological target: T9, BC2T Q12G library peptide (human)
# T9 peptide: Ac-PDRKAAVSHWQG-NH2
# How it was run: as §1
# [7] = biological target: T10, BC2T Q12(I/L) library peptide, version 2 (N-terminal acetyl, C-terminal amide)
# T10 construct: Ile and Leu versions are isobaric; two versions resolved but not assigned; also called I/L2
# How it was run: as §1
# [8] = biological target: T11, BC2T Q11T library peptide (human)
# T11 peptide: Ac-PDRKAAVSHWTQ-NH2
# How it was run: as §1
# [9] = biological target: T12, BC2T W10N library peptide (human)
# T12 construct: also called BC2TW10X: N
# T12 peptide: Ac-PDRKAAVSHNQQ-NH2
# How it was run: as §1
# [10] = biological target: T13, BC2T W10D library peptide (human)
# T13 construct: also called BC2TW10X: D
# T13 peptide: Ac-PDRKAAVSHDQQ-NH2
# How it was run: as §1
# BC2T H9R library peptide = biological target: T14, BC2T H9R library peptide (human)
# T14 peptide: Ac-PDRKAAVSRWQQ-NH2
# How it was run: as §1
# BC2T S8V library peptide = biological target: T15, BC2T S8V library peptide (human)
# T15 construct: also called BC2TS8X: V
# T15 peptide: Ac-PDRKAAVVHWQQ-NH2
# How it was run: as §1
# [11] = biological target: T16, BC2T S8C* library peptide (human, also: Abu described as gamma-amino butyric acid)
# T16 construct: also called BC2TS8X: C*; C(Abu)
# T16 peptide: Ac-PDRKAAV[GABA]HWQQ-NH2
# How it was run: as §1
# BC2T S8W library peptide = biological target: T17, BC2T S8W library peptide (human)
# T17 construct: also called BC2TS8X: W
# T17 peptide: Ac-PDRKAAVWHWQQ-NH2
# How it was run: as §1
# [12] = biological target: T18, BC2T Q12Y library peptide (human)
# T18 peptide: Ac-PDRKAAVSHWQY-NH2
# How it was run: as §1
# [13] = biological target: T19, BC2T Q11H library peptide (human)
# T19 peptide: Ac-PDRKAAVSHWHQ-NH2
# How it was run: as §1
binder,measurement,setting,value
B1,ratio,[1],0.4
same,ratio,[2],0.1
same,ratio,BC2T H9P library peptide,0.9
same,ratio,[3],0
same,ratio,[4],0.1
same,ratio,BC2T H9E library peptide,0.5
same,ratio,[5],0.5
same,ratio,BC2T S8Y library peptide,0.9
same,ratio,[6],0.2
same,ratio,[7],0.1
same,ratio,[8],0.2
same,ratio,[9],1.2
same,ratio,[10],1.1
same,ratio,BC2T H9R library peptide,0.1
same,ratio,BC2T S8V library peptide,0.2
same,ratio,[11],0.1
same,ratio,BC2T S8W library peptide,0.9
same,ratio,[12],0.2
same,ratio,[13],0.2

# — US20170137467A1 (CHROMOTEK, published 2017)
